The NTF2 design screens of Basanta et al. (2020)

Test: protease stability score; higher = more stable; yeast display proteolysis, trypsin and chymotrypsin;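 note: log10 excess protease needed over predicted unfolded state with 0 meaning unfolded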

Sequence | protease stability score
DDDQQRQAEKIVRAIRHGNEQEVDELVDENVRIEYGDKVVHGRSQLRKKMQDEKRHIRQDIKVDTVKEDGDKALIHFKNNFTVNGTPTTNTYSYEVEFTNGRAKELRIRVDPQEVRKQEK | -0.118
DDDQRKDYERFLRWQEENDPRKVAEQADPNARFRYGDKHVQGREEQSRRFDEQRKDARWDLDIKRVNVEGNKITVHFKMQMDRNGKPDSRDATRTIEYDNGRIQRDEVKVSS | -0.231
DDDQRRKAAQRAHELVKTGDPEEIEKLADKHARIQVGDKRVQGREEAKKIMKEFRERVDHIRISDVQVDGDKIKVDVVVVHNGTKKHVVFVFRVHNGKATEISLEDK | 0.027
DDDQRRKFERFITAVRTGSKEDLNKLIDPNAKINVGNHRYHGMEEFAKQVVTHNKDLRFHVRFKELDFSGNRVRVSYEMTMTVNGKPYQFTARVEFDVHDGSVKSVREQISEDVEQRQRN | 0.423
DDDQSRKLKKLFDNNNWDTLQDNADKNANIEVGNKELHGREDAEQLSEKFRDQVDHLTIESIDISGDRVIVTFVVNVNGQRVKYRVVVEAHNGRVKRMRFEFTNPEERKQYDEQLG | 0.899
DDDQVRKYQHWLQEQEKGNEESLMEKMDPNVRIRVGNNEVHGREQAAHDIRKTQQEIRVQIDFKSVDAHNGRFDFKFTAQFEVNGTPFRYSASATVVAHNGHIKRVEIRVDPEVQRKRNK | -0.079
DDDRKARDFWRKFKEVLDKGDSEENDKLVDENAKFEYGDKTLHGREDAMRWNKHLTTRVDHLRMEVEDFKVHNGKIDVQVRLDVNVNGQQRQHDVKLVAEIDGDKVKLHSLTVK | 0.009
DDDRRRQAEEILKIFETGDPQKLRSQFDPNARMHYGDKTIHGMEHAAESMERWQNEMRIELKSYSFRKQGDKVQIDAHFVVHHNGKPDTVKIHIRMELDGDKVREVSVEHTQ | 1.2
DDDRVETVAQELAEAIMENDEDRAREMVDPNARIVYGEKDLHGREAFHTVMQLFQHRVDRVDLETVSVHNGRVKFEAVLKHNGTEHRVVFIVDAHNGKAKQVEVRDQ | 0.862
DDDSQNEFLQRVAEAIVTGDEKSLVRMMDPNARANVGDKQFHGREQMARWARELRERVDHLQVDDLQNHNGRLHMDIQFKDNGKNKHFIIQVEAHNGKVTKMSADEK | 1.36
DDDTDRKVAEDAWRAFEKGDHKRLIELMDKDAEVQVGNRRVSGREKAAHEMVRMVERADHISVKSIDIRGDKATIKFQVNVNGHNQEAKVVFRVQNGRVQEVKFDPTMEKALRT | 1.39
DDDTTAKKAIDDFIENFEHGDPKEADKQADENVRVEYGDKEVDGRHQMAHWLVKLVERVDHVRWHIHEVRMDNGKINVIFENKQKFDGRTEDREFHMTADTRDGRIQLTSVHEK | 0.491
DDDVLRKVERLIEVENEGNEDEARELMDPNAEFQVGDKSVHGREEYASNMKKEQKELKIEIHHVTQSVHNGEADVHLTMRVNDNGRPKEQHYHATFEAHNGRIVYVKKQMRG | -0.099
DDDVMRRLLKWVKNGDWDVLAENADPNVRVNIGDFRVHGREQFKEWADKLHKKVDHFHYRDVKVNGDRVRFDFIEHFNGKTIDMDMTARAHNGRITSLDVNVRSEDDKHAFKELVS | 1.1
DDDVVRKAHSFFRQYQRGNPDHLLKMMDPNARVRYGDKTYQGREDLKEILQHQLDRIRIRVKRMSLRAENGHLNVEVDEVLEHNGEPRRATADVKVTWRNGRIHEMQVVWRG | 0.27
DDEAKDIVEEVVREGDFRQHMRLADEDAKLEYGDKRLHGRERVSDMAQKINERVDHLEVESVSVRGEEVIITLVLNVDGQKFRMKLVMDVQGDKIKSVKLEARTEDNKKLMDRAFS | 0.012
DDEAKDVVDTFMHAVRFGDPDKVDRNIDKDVRLRYGDTEVHGREDAKTYIEDLRDESRVKINEYSATAHNGKADLDADMSFTRNGQPRKRKMKVTAEVHNGHIKELDVQWRP | -0.313
DDEAKEHVEDFIRALKDNNPDEVDEYIDKDAKVHVGDTIYHGREEVRRDVERKKRHLRFDYEDVKIEVHGEKVVAHMKVEYQHNGRPDKARVILDVRFHNGRVRSLHIQEQK | -0.095
DDEALRVYQEVLEAWKHGDEDRLRQLLDPNVSIDVGDKDVHGREDYVTKMVRKARELSFHFEHVHVDHDGDKATIQMVYVIDQNGEPDRTANNVKVDVQNGKIKEIRVSSDR | 0.622
DDEAMKQFRHWVEAYTTGDSQRLRELVDPNATVRVGDKTYTGMEDIAKNIHQQVRRQRFHVELKRVNNQPNRIEVDLDVTFNVNGKPIRIRLRMQAEMHNGRFKYIEVRFDPDEQRKLES | 0.861
DDEANKTAHELVRILQTGDDESFEKMVDPNVKVVIGDRTFKGSSEVRDYLRKRKENIHEDLQVKHVSASGNKAHLDLRFRNDKNGRPQERRLELDVVFHNGKVKNVVYHWDG | 1.39
DDEANRVARHFVKALRKGDPDRLREMVDPNAKVVVGDQSWHGRDSLHHILEREIKEIRISIKDVKFQDQGDKANVEMRVESKHNGQPSESSSSVIVVVRNGRIQEIDMKTSG | 0.291
DDEANTVFREQLHQLEEGNHKEVAKNFDPNVRVSVGDRSIHGSEEVNTRIRRQAHESRIQVDHMSDDNSNGRVTMSADQVVNENGKPSTHRYKLTARVHNGKVKSMVITRDG | -0.575
DDEAQKLAEDYLTALQNNNPDKVIELLDPNARAEYGDKTYHGREQIHHFLRQFHKQARLQFTSYDVEVKNGQARLHMRVQVNHNGEPSQYEASIRISVHNGRMKEVQLQWSN | 1.58
DDEAQRIVHKFVRAMQTNDPDSVEKLLDKNARIEYGDKTIHGNSQAREEVEKTKNQARFQIDSYRVQEEPGRAVLDQKVTFRINGQPDQMRHTLYFDFHNGRVTNLHMHIDEDDYQRHRG | -0.019

Sequence | protease stability score
DDEAQRVFEDWLENVKKGDEDHAVQLADPNADFVIGDKTYHGREQLKREIKHERDRLRREMRIQDFDDQPPRIDIKFEFTNQHNGKPSSDTAVMKLQMHNGDVQALVVTQHR | -0.302
DDEARKRIRTYWELYNQGNESKLEEMVDKDVRFEVGDKTIEGRRQVSTQLHREVREADVRVDIESIHVTGNKVDVEFRHSRDHNGQPETDQQRAEFNMDNGKIQSVVHRKDG | -0.204
DDEARNLVSEWLKAVETGDPDRVSQNMDPNASYHIGEWNVTGRETVNKLLDDVKTRLRVQFNIQHLDANGDTVDLRAMVLYEHNGKPDTKVYHFKFQQHNGKLVDVRATEDG | 0.736
DDEARRVAETVMTAVSRGDEEKVKEMFDPNARFRVGNKEISGRENYADWLRKLQEHARVDVSDVKAKDQGDEVTAKVRFVLSVDGTPHTMNVDVHFSVDNGKIIDYKQRFDEDDLRRILK | -0.155
DDEAVRAAKRAFEAWIENDPEKMKHQVDENAHLHYGDKEVHGREDANRQVHEDERQMRIELRSVTFQHHNGRAKIDMKYVLDHNGKPETRKFDATAEARNGKITKMSIDVHQ | -0.077
DDEAVRAMKRWMDALKTGDPDHLKNNIDPNANIDVGDKRVHGREQIMTMVEKELHEIKITITSINFEDHGDKAVVIINYIRDHNGRPQSNRATLEAEVHNGRIKELKMKDDK | 0.468
DDEAVRQIQTMVRNQNTGDPDKVAEQMDPNVQVDYGDTNLQGREHVHHWLEELKRQARFELTSVKAESQGDNIHVQVDRKVNVNGQPRRDEMHFEVRVHNGRIRSVDIQFDPDKYRQIMS | -0.28
DDEDADKAQRILETGNPDEMDKLLDKDVRVVVGDKEYKGREQVSEFFRRLLEQVDTITFLSVEIHNGTVQARVLVNVNGHNVDVVFQFVVHNGKLKHAKVEARNEEEQKKLDRALS | 1.55
DDEDADRMVKLIRTNDPETFARQMDPNARVEVGDKKVHGREEALKLLSELYNQADHFQVKSISRHNGRVTVDAILVVNGRTMRARIEVVVHNGRVKSARVKFTNPEDQKQMRRNVQ | -0.185
DDEDAHRVADDANKALERGDERRLKELFDKDVRLHYGDKHVRGREEFEDWVQEWLRTVDKIRVEDYKVHDGVVRIRIRVDINGKDVSQTIDLDVKNGTIVNVVIKDN | 1.43
DDEDAKHLMQVLQNGDEDRFAELVDENAHQTIGDKTIHGRSEFDRIHEKLKKRIDNFRVNDYRIDNGSVNADVSANVNGQKIRFKYQAHVTNGHIKEMRFQATDPRQEDKWHEMQK | -0.031
DDEDAKRWEKFLKLQQEGNDSEMRKLVDENASFDVGNKHYSGMTTMAHELVRHAHDIRLEYKDVKIDVSGEQIYVTMEVTVNINGQPVRYTNVLEVTMHNGKVKTATNRIPEDVEREIRQ | 0.034
DDEDDKRLADEFNTAVKQGDEDQLKNLMDEDATAEIGDKQLTGRENAAKHLVTLARHADHIQVNSVRVHDGRIRIDMRMIFNGQDHHYDIKIEVHNGRIKRMTVRNK | 1.6
DDEDEHKFATRMAEILHTGDPDRFQEQVDENVEARYGDKEYHGDEQAKTAFKHVVERVDTVEIKHMDAKNGKVSVHFVLDYDGEKQHVTLNVELHNGKAQRVEFQTQ | 0.144
DDEDFKKFKELVETGDWSSLRKQADKNVRQRVGDKQIHGKEEFSRLLKHLQDQIDHVEIKHMQDEPNHLRVDVVWNINGVRVRFQYIVELSNGHIKYIKIDVTDENKLTKLQDLLQ | 0.491
DDEDKAREFQRHLLRLVRTNNEKDLHNMADPNVKVVIGDKVYSGRDDVAKAHAELRRNVDHINLEIKSVSHKNGRMKVEAEVIYDHNGKKDKRTMTAVIDRHNGKNVLVHMNIQ | 1.65
DDEDNKRKAEEFVRLMHTGDEERIKELFDPNVKAVIGDKEYHGRDTVADWARRLREQADHFDVHRMTAQGDRVHVDMFVTHNGRTKRVVIVLKYHNGRVEEIKVQDG | 2.28
DDEDQKSTAEEIAKALQTGDKDKVTELFDEDARLKIGDTEFHGREQVSRAVHEIKTRVDHMELKDMEFTGDHVRIVYIANVDGHHATFVAHVVLNNGTAKSMSLSVRDERDKESVDK | 0.276
DDEDQRDQVRRLSKQMQTGDPNKVRQLLDPNAEVHIGDTTVHGREEVMRSQDKLRKRIDHFEMQDMKVDGESVVAHAVFRVDGKDITLEVRARYTNGRVKKMSFNPEAITRIRS | 0.127
DDEDRKKADEMLKALKHGDPDRVRELMDPNAKAVYGDKRIRGRDDFVEDMFRKQREIKIDMKIEEFRVNGNHAVFTVDVIEDKDGRPKRFKARVVITLHNGKIIDIKVEEEH | 1.25
DDEDVNRHAESISRALERGDEERLLELLDENVTVEYGDKRVHGREEIERFLREFHRHADHIKVDRVKARGNKVRIRAVNDYDGRKVDYVFHFQFENGRVRKVKIEEK | 1.29
DDEDWHRLAERLFTALRTGDWKELLKMMDPNVNINIGDQTYHGRKDLKNWAQHMREEVDHVEIKSIRIQGNKIVLDITYVTNGQRQNVIFVFSIHNGKVKHVHAKTK | 1.14
DDEEADKIVEELVKAMEHNDEKHFMELVDPNAKVRYGDTEYHGEDQIQTMFREIVEQADTVQVRSYRVENGEARVEANFRVNGRNAIVTMSATFHNGRVQSLRLHARDEEDRNKLDN | 0.999
DDEEAKRVAEEVIKAMQKGDEEHFDRLVDPDVRLNVGDKVLHGRRDLRRWVKEVADKADHVQVDDVKVNNGTAKIRFRIDINGQTEEVIMHIHVTNGEVKSMRVQRT | 1.43
DDEEALKVIHHFIEVMMSGDEETARRLADKNVEAHYGDRTYHGSEEAVRALIEWARSVDNMRIDSVTQEGNEVKVHVVAHFDGRRVEVDIVIEAHNGKINFVTINPDDIRRMKQ | 0.831
